Drawing on patent EP4545091A1 (priority 2023, dated 2025), this text covers IC50, MERS-CoV spike pseudoparticle entry into CaCo-2 cells (luciferase) and IC50, SARS-CoV spike pseudoparticle entry into CaCo-2 cells (luciferase) for one substance.

The target of the assay is TMPRSS2 on cells (UniProt O15393). The experiment in a line: cell-based or functional assay.

Trypstatin (AMBP 284-344) (peptide) gave an IC50, MERS-CoV spike pseudoparticle entry into CaCo-2 cells (luciferase) of 0.078 µM and an IC50, SARS-CoV spike pseudoparticle entry into CaCo-2 cells (luciferase) of 0.031 µM.
